B1: TPR t1 (parent)
chain: GACCAAUCUGCCCUCAGAGCUCGAGAACAUCUUCGGAUGCAGAGGAGGCAGGCUUCGGUGGCGCGAUAGCGCCAACGUCCUCAACCUCCAAUGCAUCCCACCACAUGAUGAUGCCUGAAGAGCCUUGGUUUUUUG

Variants of: B1
Test: polymerase ribozyme fitness, log enrichment relative to wild type (log ratio); higher = more active; in vitro selection for triplet polymerase activity
Method in brief: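 The heterodimeric triplet polymerase ribozyme's subunits were each mutagenized into PCR-built libraries and transcribed. Every library was selected once, in triplicate, by annealing with a biotinylated primer, the partner subunit and triplets, incubating frozen at −7 °C, gel-excising extended constructs, capturing on streptavidin beads and running RT-PCR. Input and output libraries were Illumina-sequenced, with genotypes kept only at ≥10 input reads and ≥1 read per output. Fitness, from inverse-variance-weighted replicate averages, is the base-2 logarithm of genotype enrichment over wild-type enrichment.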

Row | Variant | polymerase ribozyme fitness (log ratio)
1 | C22G G63C C80A | -5.79
2 | C22U C40G G63A A74U A75U | -5.63
3 | C22G A26C C31G G45U G60U | -8.09
4 | U21G C73A C94A | -2.37
5 | C22G A50C G60U C115A | -2.18
6 | C22G A41U C88G U116G A121G | -4.87
7 | C22U A37U G57A C115A | -4.73
8 | C22U C53A C72U A95G C104A | -4.54
9 | C22G C123A | -3.18
10 | C22G C123U | -2.66
11 | C22U C82A C101A | -4.64
12 | U21G U38C G71C C99G C114U G120U A121U | -7.22
13 | C22G G60C C104A A121U | -2.34
14 | U21C C22G G63A G77U C94A G110C U112C | -7.86
15 | U21C C73A C89A | -2.96
16 | U21C G35A U130A | -4.76
17 | C22G A75U C101U C123A G128C | -6.24
18 | C22U A37U C56U | -5.01
19 | U21G G36A U54A G63U C82A C123A | -3.52
20 | U21C G63C G120A | -0.168
21 | C22U A41U C73G C99U | -6.26
22 | C22U A41U C53U C56U G61U G110U A121C | -7.42
23 | C22U C72A C79A | -5.61
24 | C22U C89U | -3.61

Row | Variant | polymerase ribozyme fitness (log ratio)
25 | C22U C89A | -4.83
26 | C22U C62U | -4.34
27 | U21C U78A A91U | -1.45
28 | U21C G71A C101U G117A | -2.85
29 | C22G G61A C62U C104U G120A | -4.48
30 | C22A A27G G60C A83G | -6.08
31 | C22G C28U A37U G48A G110C | -3.85
32 | U21C U54A G93A A111C | -0.948
33 | U21G C97G U112G | -5.7
34 | C22G U38A G61U C124U | -3.08
35 | C22U G52A C88U | -5.75
36 | C22U A43U C86U | -5.15
37 | C22G A50G | -3.5
38 | C22A C73U | -5.07
39 | C22A C73G | -4.45
40 | U21C C72U | -0.489
41 | C22A C124A U134C | -4.93
42 | C22G A37U C88U | -4.47
43 | C22G C104A C123A | -3.01
44 | U21G C62A | -2.26
45 | C22A A66C G69U G93C | -5.35
46 | C22A G44C U112A | -3.24
47 | C22U G93U | -5.26
48 | C22U G93A | -3.97

Row | Variant | polymerase ribozyme fitness (log ratio)
49 | U21G U87G U133G | -3.13
50 | C22U G45U G47C | -7.47
51 | C22G G63C G69C U112A | -5.1
52 | U21C A37G A46C C64G A100C C115U G117C | -7.24
53 | U21C G45A U59A G61A | -1.1
54 | U21C C72G C85A U116C | -3.42
55 | C22U C70A | -4.49
56 | C22A C72G | -4.59
57 | C22A C72U | -4.98
58 | C22A C82G U112G | -5.26
59 | U21C G60C | -0.312
60 | C22A C73U A83G C115A | -4.8
61 | C22G G44C G48U A121U | -3.43
62 | C22G G69A C79A | -5.64
63 | C22G G48C C72U C124U | -2.66
64 | C22G C79A C94U G110U A119G U133A | -3.44
65 | C22G G47U | -4.11
66 | C22G C82A A83U G93C | -4.04
67 | C22G A75U | -3.6
68 | C22U G60A C123A | -4.89
69 | C22A A37U A43C C114A A118G | -6.5
70 | U21G A95C | -2.54
71 | C22G C40A | -4.68
72 | C22A G25C G45C G48U U59A C115U | -6.59

Row | Variant | polymerase ribozyme fitness (log ratio)
73 | C22G U55G G60U C62G U78C | -5.09
74 | U21G C88A | -1.66
75 | C22A U78C | -6.19
76 | U21C G58C | -0.199
77 | C22U C31G A50U C72G C82A A95G G107C | -5.28
78 | C22G G61C C124U U133C | -2.74
79 | C22G U96G C104G | -5.47
80 | C22G A29C A84C | -3.73
81 | C22U C73U U78A C89G U112A C124A | -6.98
82 | C22G A37U A41C C53U | -3.91
83 | C22G C62G | -4.53
84 | C22G C62A | -3.99
85 | C22A C31G C62U C94A G110C | -6.66
86 | U21C A29U C62U A84C U112A A119G G120C | -1.53
87 | C22G G39U | -3.5
88 | C22A A29G C40A G63U A74U G93A G113C G120U | -7.43
89 | U21C C34A C49U U78C G120A | -2.92
90 | C22G G52U G63C G93A | -4.47
91 | C22A C82U A90U U112A | -4.93
92 | U21G A46C C86U | -2.16
93 | U21G G61C | -3.98
94 | C22G A43U C72G U106A C115A | -1.97
95 | U21G C40U G47U G63U C98A G120C | -7.2
96 | C22G G69A C124A | -3.93

Row | Variant | polymerase ribozyme fitness (log ratio)
97 | C22G G63U | -4.31
98 | C22U C56U | -3.77
99 | C22G U38A U96C U112A A121U | -3.78
100 | C22A C79U U87A | -4.8
101 | C22G A27C C56G G120C | -4.73
102 | C22G C62G C104U G120A | -4.19
103 | C22U C85A | -6.28
104 | C22U C85U | -4.5
105 | U21G A46U G69U G117C | -4.95
106 | C22A C64U | -4.37
107 | C22A G61A U129G | -5.57
108 | C22A G60A | -4.26
109 | C22A G60U | -4.21
110 | C22G G23A C97U G120C | -3
111 | C22G A50U C56U C76U C88G C124G | -5.33
112 | C22U G63C | -4.47
113 | C22U G63U | -4.76
114 | C22U G63A | -4.36
115 | C22A A111C A119U | -6.95
116 | U21G C88A C97A A121C | -5.55
117 | C22G A118G A121U | -1.54
118 | C22G G35C | -5.43
119 | U21G C72U A75U | -1.05
120 | U21C C88G A121U | -0.0258

Row | Variant | polymerase ribozyme fitness (log ratio)
121 | C22A G39U | -5.33
122 | U21G C56A C70U C89A G113U | -3.69
123 | C22A G42A C73A | -7.34
124 | C22U G63U C82U C124G U126A | -3.87
125 | C22U C40G | -4.26
126 | C22G A24U U30C A46G G48U G60C G110U | -6.93
127 | C22G A37U U87G | -3.6
128 | C22G A74C | -3.02
129 | C22G C104A | -5.33
130 | C22A C53U C64U C124U | -3.7
131 | U21C C56A G69U C70U U96A A119G | -2.46
132 | U21C C72U G93A U96G | -2.4
133 | C22A A26G A83U | -3.1
134 | U21G G51U G69C A103U A111U G122U | -7.01
135 | C22A G61U C115U G128C U131A U134C | -5.61
136 | C22A U67C C80A U96A U109A | -6.8
137 | U21G G120U C123A | -1.07
138 | C22G U131A | -3.47
139 | C22U G69U C82U C124G U126A | -0.7
140 | C22A A26C A27U C86A U112C | -6.59
141 | C22U A75G | -3.55
142 | C22G G36U | -4.91
143 | C22G G52U C73U A95C | -5.41
144 | C22G C56A C79A | -4.99

Row | Variant | polymerase ribozyme fitness (log ratio)
145 | C22A C28U | -4.42
146 | C22U G60C | -4.82
147 | C22U C82A A84C G93C U112C | -4.92
148 | C22U G63U U78G U112A | -6.24
149 | C22G G36A C101U | -5.03
150 | U21C G71U | -0.75
151 | C22G G42U G44U C89U | -4.83
152 | C22U A26U U54G A118U | -4.35
153 | C22G G113C | -5.28
154 | C22G C53U C70A G120A G128U | -4.71
155 | C22A A46C U131A | -4.88
156 | C22G A27C | -4.37
157 | U21G G48U U59C A74U C114A | -2.3
158 | U21C C56U | 0.0213
159 | C22U C53U | -4.37
160 | C22G C72G U81A | -4.32
161 | U21C G71A G93A | -1.91
162 | C22U G71A U78A | -4.62
163 | C22A G61A A66C | -5.28
164 | C22U A43G G61A C115A | -5.11
165 | C22U C115G | -4.6
166 | C22G G63U U92G G110A | -5.8
167 | U21G C22A A74G | -4.4
